Source: PMC7567440 (2020)

Target: recombinant flagellin of Bacillus cereus HN001 (WR52_08290) (Bacillus cereus HN001)
Assay: BLI

B1: pigeon ovomucoid (natural protein)
chain: VEVDCSRYHNTTNVEGREGLPCTKDFNPICGSDGVTYDNECLLCSYNREYGTNVSKDHDGQCREVIPVDCSKYPNVTNEEGRVALFCTENLRLVCGADGVTYDNECLLCARSLERGTRAGKKYDGECRREITTVDCSDHPQHACTLNYLPVCGSDSRTYSNRCNFCNAVVHSNGTLTLNYFGEC
modifications: terminal Galα1-4Gal residues; biotin (biotinylated POVO in the BLI assay)
Work on B1 yielded a koff of 0.000376 s⁻¹.
